Assay results reported in the RNAGym collection of RNA variant scans (doi:10.1021/acssynbio.7b00057).

B1: Pistol ribozyme (parent)
chain: GGGUCGUUGUUCCAUAAUCGCGUGGAUAUGGCACGCAAGUUUCUACCGGGCACCGUAAAUGUCCGACUGGAGCCGUUCGGGCGGCUAUAAACAGACCUCAGGCCCGAAGCGUGGCGGCACCUGCCGCCGGUGGUAAAAAAGAUCGGAAGAGCACACGUCU

Variants of: B1
Assay: aptazyme ON/OFF ratio, guanine; higher = stronger switching; co-transcriptional cleavage with and without guanine

| Variant | aptazyme ON/OFF ratio |
| --- | --- |
| GGGUCGGUUCGCAAUAAUCGCGUGGAUAUGGCACGCAAGUUUCUACCGGGCACCGUAAAUGUCCGACUGGAGCCGUUCGGGCGGCUAUAAACAGACCUCAGGCCCGAAGCGUGGCGGCACCUGCCGCCGGUGGUAAAAAAGAUCGGAAGAGCACACGUCU | 1.32 |
| GGGUCGGUUCGCUAUAAUCGCGUGGAUAUGGCACGCAAGUUUCUACCGGGCACCGUAAAUGUCCGACUGGAGCCGUUCGGGCGGCUAUAAACAGACCUCAGGCCCGAAGCGUGGCGGCACCUGCCGCCGGUGGUAAAAAAGAUCGGAAGAGCACACGUCU | 1.38 |
| GGGUCGGUUCGCGAUAAUCGCGUGGAUAUGGCACGCAAGUUUCUACCGGGCACCGUAAAUGUCCGACUGGAGCCGUUCGGGCGGCUAUAAACAGACCUCAGGCCCGAAGCGUGGCGGCACCUGCCGCCGGUGGUAAAAAAGAUCGGAAGAGCACACGUCU | 1.22 |
| GGGUCGGUUCGUUAUAAUCGCGUGGAUAUGGCACGCAAGUUUCUACCGGGCACCGUAAAUGUCCGACUGGAGCCGUUCGGGCGGCUAUAAACAGACCUCAGGCCCGAAGCGUGGCGGCACCUGCCGCCGGUGGUAAAAAAGAUCGGAAGAGCACACGUCU | 1.22 |
| GGGUCGGUUCGUAAUAAUCGCGUGGAUAUGGCACGCAAGUUUCUACCGGGCACCGUAAAUGUCCGACUGGAGCCGUUCGGGCGGCUAUAAACAGACCUCAGGCCCGAAGCGUGGCGGCACCUGCCGCCGGUGGUAAAAAAGAUCGGAAGAGCACACGUCU | 1.22 |
| GGGUCGGUUCGUGAUAAUCGCGUGGAUAUGGCACGCAAGUUUCUACCGGGCACCGUAAAUGUCCGACUGGAGCCGUUCGGGCGGCUAUAAACAGACCUCAGGCCCGAAGCGUGGCGGCACCUGCCGCCGGUGGUAAAAAAGAUCGGAAGAGCACACGUCU | 1.23 |
| GGGUCGGUUCCCCAUAAUCGCGUGGAUAUGGCACGCAAGUUUCUACCGGGCACCGUAAAUGUCCGACUGGAGCCGUUCGGGCGGCUAUAAACAGACCUCAGGCCCGAAGCGUGGCGGCACCUGCCGCCGGUGGUAAAAAAGAUCGGAAGAGCACACGUCU | 1.42 |
| GGGUCGGUUCGCCAUAAUCGCGUGGAUAUGGCACGCAAGUUUCUACCGGGCACCGUAAAUGUCCGACUGGAGCCGUUCGGGCGGCUAUAAACAGACCUCAGGCCCGAAGCGUGGCGGCACCUGCCGCCGGUGGUAAAAAAGAUCGGAAGAGCACACGUCU | 2.9 |
| GGGUCGGUUGUAAAUAAUCGCGUGGAUAUGGCACGCAAGUUUCUACCGGGCACCGUAAAUGUCCGACUGGAGCCGUUCGGGCGGCUAUAAACAGACCUCAGGCCCGAAGCGUGGCGGCACCUGCCGCCGGUGGUAAAAAAGAUCGGAAGAGCACACGUCU | 1.12 |
| GGGUCGGUUGUCCAUAAUCGCGUGGAUAUGGCACGCAAGUUUCUACCGGGCACCGUAAAUGUCCGACUGGAGCCGUUCGGGCGGCUAUAAACAGACCUCAGGCCCGAAGCGUGGCGGCACCUGCCGCCGGUGGUAAAAAAGAUCGGAAGAGCACACGUCU | 3.04 |
| GGGUCGGUUCGAAAUAAUCGCGUGGAUAUGGCACGCAAGUUUCUACCGGGCACCGUAAAUGUCCGACUGGAGCCGUUCGGGCGGCUAUAAACAGACCUCAGGCCCGAAGCGUGGCGGCACCUGCCGCCGGUGGUAAAAAAGAUCGGAAGAGCACACGUCU | 1.1 |
| GGGUCGGUUCGAUAUAAUCGCGUGGAUAUGGCACGCAAGUUUCUACCGGGCACCGUAAAUGUCCGACUGGAGCCGUUCGGGCGGCUAUAAACAGACCUCAGGCCCGAAGCGUGGCGGCACCUGCCGCCGGUGGUAAAAAAGAUCGGAAGAGCACACGUCU | 1.16 |
| GGGUCGGUUCGAGAUAAUCGCGUGGAUAUGGCACGCAAGUUUCUACCGGGCACCGUAAAUGUCCGACUGGAGCCGUUCGGGCGGCUAUAAACAGACCUCAGGCCCGAAGCGUGGCGGCACCUGCCGCCGGUGGUAAAAAAGAUCGGAAGAGCACACGUCU | 1.13 |
| GGGUCGGUUCGACAUAAUCGCGUGGAUAUGGCACGCAAGUUUCUACCGGGCACCGUAAAUGUCCGACUGGAGCCGUUCGGGCGGCUAUAAACAGACCUCAGGCCCGAAGCGUGGCGGCACCUGCCGCCGGUGGUAAAAAAGAUCGGAAGAGCACACGUCU | 1.13 |
| GGGUCGGUUCGGCAUAAUCGCGUGGAUAUGGCACGCAAGUUUCUACCGGGCACCGUAAAUGUCCGACUGGAGCCGUUCGGGCGGCUAUAAACAGACCUCAGGCCCGAAGCGUGGCGGCACCUGCCGCCGGUGGUAAAAAAGAUCGGAAGAGCACACGUCU | 1.25 |
| GGGUCGGUUCGUCAUAAUCGCGUGGAUAUGGCACGCAAGUUUCUACCGGGCACCGUAAAUGUCCGACUGGAGCCGUUCGGGCGGCUAUAAACAGACCUCAGGCCCGAAGCGUGGCGGCACCUGCCGCCGGUGGUAAAAAAGAUCGGAAGAGCACACGUCU | 1.49 |
| GGGUCGGUUGUACAUAAUCGCGUGGAUAUGGCACGCAAGUUUCUACCGGGCACCGUAAAUGUCCGACUGGAGCCGUUCGGGCGGCUAUAAACAGACCUCAGGCCCGAAGCGUGGCGGCACCUGCCGCCGGUGGUAAAAAAGAUCGGAAGAGCACACGUCU | 1.7 |
| GGGUCGGUUCCAAAUAAUCGCGUGGAUAUGGCACGCAAGUUUCUACCGGGCACCGUAAAUGUCCGACUGGAGCCGUUCGGGCGGCUAUAAACAGACCUCAGGCCCGAAGCGUGGCGGCACCUGCCGCCGGUGGUAAAAAAGAUCGGAAGAGCACACGUCU | 1.37 |

| Variant | aptazyme ON/OFF ratio |
| --- | --- |
| GGGUCGGUUCCAGAUAAUCGCGUGGAUAUGGCACGCAAGUUUCUACCGGGCACCGUAAAUGUCCGACUGGAGCCGUUCGGGCGGCUAUAAACAGACCUCAGGCCCGAAGCGUGGCGGCACCUGCCGCCGGUGGUAAAAAAGAUCGGAAGAGCACACGUCU | 1.4 |
| GGGUCGGUUCCAUAUAAUCGCGUGGAUAUGGCACGCAAGUUUCUACCGGGCACCGUAAAUGUCCGACUGGAGCCGUUCGGGCGGCUAUAAACAGACCUCAGGCCCGAAGCGUGGCGGCACCUGCCGCCGGUGGUAAAAAAGAUCGGAAGAGCACACGUCU | 1.47 |
| GGGUCGGUUCCUGAUAAUCGCGUGGAUAUGGCACGCAAGUUUCUACCGGGCACCGUAAAUGUCCGACUGGAGCCGUUCGGGCGGCUAUAAACAGACCUCAGGCCCGAAGCGUGGCGGCACCUGCCGCCGGUGGUAAAAAAGAUCGGAAGAGCACACGUCU | 1.23 |
| GGGUCGGUUCCUUAUAAUCGCGUGGAUAUGGCACGCAAGUUUCUACCGGGCACCGUAAAUGUCCGACUGGAGCCGUUCGGGCGGCUAUAAACAGACCUCAGGCCCGAAGCGUGGCGGCACCUGCCGCCGGUGGUAAAAAAGAUCGGAAGAGCACACGUCU | 1.29 |
| GGGUCGGUUCCUAAUAAUCGCGUGGAUAUGGCACGCAAGUUUCUACCGGGCACCGUAAAUGUCCGACUGGAGCCGUUCGGGCGGCUAUAAACAGACCUCAGGCCCGAAGCGUGGCGGCACCUGCCGCCGGUGGUAAAAAAGAUCGGAAGAGCACACGUCU | 1.25 |
| GGGUCGGUUCCGGAUAAUCGCGUGGAUAUGGCACGCAAGUUUCUACCGGGCACCGUAAAUGUCCGACUGGAGCCGUUCGGGCGGCUAUAAACAGACCUCAGGCCCGAAGCGUGGCGGCACCUGCCGCCGGUGGUAAAAAAGAUCGGAAGAGCACACGUCU | 1.2 |
| GGGUCGGUUCCGUAUAAUCGCGUGGAUAUGGCACGCAAGUUUCUACCGGGCACCGUAAAUGUCCGACUGGAGCCGUUCGGGCGGCUAUAAACAGACCUCAGGCCCGAAGCGUGGCGGCACCUGCCGCCGGUGGUAAAAAAGAUCGGAAGAGCACACGUCU | 1.31 |
| GGGUCGGUUCCGAAUAAUCGCGUGGAUAUGGCACGCAAGUUUCUACCGGGCACCGUAAAUGUCCGACUGGAGCCGUUCGGGCGGCUAUAAACAGACCUCAGGCCCGAAGCGUGGCGGCACCUGCCGCCGGUGGUAAAAAAGAUCGGAAGAGCACACGUCU | 1.17 |
| GGGUCGGUUCACUAUAAUCGCGUGGAUAUGGCACGCAAGUUUCUACCGGGCACCGUAAAUGUCCGACUGGAGCCGUUCGGGCGGCUAUAAACAGACCUCAGGCCCGAAGCGUGGCGGCACCUGCCGCCGGUGGUAAAAAAGAUCGGAAGAGCACACGUCU | 1.36 |
| GGGUCGGUUCGGAAUAAUCGCGUGGAUAUGGCACGCAAGUUUCUACCGGGCACCGUAAAUGUCCGACUGGAGCCGUUCGGGCGGCUAUAAACAGACCUCAGGCCCGAAGCGUGGCGGCACCUGCCGCCGGUGGUAAAAAAGAUCGGAAGAGCACACGUCU | 1.13 |
| GGGUCGGUUCGGUAUAAUCGCGUGGAUAUGGCACGCAAGUUUCUACCGGGCACCGUAAAUGUCCGACUGGAGCCGUUCGGGCGGCUAUAAACAGACCUCAGGCCCGAAGCGUGGCGGCACCUGCCGCCGGUGGUAAAAAAGAUCGGAAGAGCACACGUCU | 1.06 |
| GGGUCGGUUCGGGAUAAUCGCGUGGAUAUGGCACGCAAGUUUCUACCGGGCACCGUAAAUGUCCGACUGGAGCCGUUCGGGCGGCUAUAAACAGACCUCAGGCCCGAAGCGUGGCGGCACCUGCCGCCGGUGGUAAAAAAGAUCGGAAGAGCACACGUCU | 1.12 |
| GGGUCGGUUCCCAAUAAUCGCGUGGAUAUGGCACGCAAGUUUCUACCGGGCACCGUAAAUGUCCGACUGGAGCCGUUCGGGCGGCUAUAAACAGACCUCAGGCCCGAAGCGUGGCGGCACCUGCCGCCGGUGGUAAAAAAGAUCGGAAGAGCACACGUCU | 1.05 |
| GGGUCGGUUCCCUAUAAUCGCGUGGAUAUGGCACGCAAGUUUCUACCGGGCACCGUAAAUGUCCGACUGGAGCCGUUCGGGCGGCUAUAAACAGACCUCAGGCCCGAAGCGUGGCGGCACCUGCCGCCGGUGGUAAAAAAGAUCGGAAGAGCACACGUCU | 1.09 |
| GGGUCGGUUCCCGAUAAUCGCGUGGAUAUGGCACGCAAGUUUCUACCGGGCACCGUAAAUGUCCGACUGGAGCCGUUCGGGCGGCUAUAAACAGACCUCAGGCCCGAAGCGUGGCGGCACCUGCCGCCGGUGGUAAAAAAGAUCGGAAGAGCACACGUCU | 1.07 |
| GGGUCGGUUCCACAUAAUCGCGUGGAUAUGGCACGCAAGUUUCUACCGGGCACCGUAAAUGUCCGACUGGAGCCGUUCGGGCGGCUAUAAACAGACCUCAGGCCCGAAGCGUGGCGGCACCUGCCGCCGGUGGUAAAAAAGAUCGGAAGAGCACACGUCU | 1.37 |
| GGGUCGGUUCCUCAUAAUCGCGUGGAUAUGGCACGCAAGUUUCUACCGGGCACCGUAAAUGUCCGACUGGAGCCGUUCGGGCGGCUAUAAACAGACCUCAGGCCCGAAGCGUGGCGGCACCUGCCGCCGGUGGUAAAAAAGAUCGGAAGAGCACACGUCU | 1.41 |
| GGGUCGGUUCCGCAUAAUCGCGUGGAUAUGGCACGCAAGUUUCUACCGGGCACCGUAAAUGUCCGACUGGAGCCGUUCGGGCGGCUAUAAACAGACCUCAGGCCCGAAGCGUGGCGGCACCUGCCGCCGGUGGUAAAAAAGAUCGGAAGAGCACACGUCU | 1.23 |
